From patent US20240084003A1 (SIMCERE ZAIMING PHARMACEUTICAL, published 2024)

T1: human CD22-ECD-His protein (human, UniProt P20273 20-687)
T1 construct: Made in house in HEK293E; also called hCD22-ECD-His; recombinant human CD22-ECD His protein; not shown: His tag
T1 sequence: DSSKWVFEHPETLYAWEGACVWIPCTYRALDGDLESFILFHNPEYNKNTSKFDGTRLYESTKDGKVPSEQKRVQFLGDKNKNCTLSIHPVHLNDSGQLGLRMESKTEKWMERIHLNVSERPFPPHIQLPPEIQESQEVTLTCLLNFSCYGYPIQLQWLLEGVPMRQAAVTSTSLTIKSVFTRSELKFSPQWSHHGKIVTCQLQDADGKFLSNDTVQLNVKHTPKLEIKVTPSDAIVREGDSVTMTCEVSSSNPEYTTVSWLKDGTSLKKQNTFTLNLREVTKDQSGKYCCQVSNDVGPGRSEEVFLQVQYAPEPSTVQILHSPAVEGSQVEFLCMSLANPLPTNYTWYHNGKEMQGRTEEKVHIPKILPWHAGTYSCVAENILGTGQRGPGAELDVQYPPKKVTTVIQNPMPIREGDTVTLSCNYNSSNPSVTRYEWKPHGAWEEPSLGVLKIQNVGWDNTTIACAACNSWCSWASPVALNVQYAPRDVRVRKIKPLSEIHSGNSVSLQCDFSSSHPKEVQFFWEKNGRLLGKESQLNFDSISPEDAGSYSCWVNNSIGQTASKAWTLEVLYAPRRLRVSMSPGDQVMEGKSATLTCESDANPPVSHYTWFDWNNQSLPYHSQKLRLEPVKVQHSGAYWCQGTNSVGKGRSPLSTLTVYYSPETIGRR

T2: murine CD22 protein (ACROBiosystems, SI2-M52Ha) (murine, UniProt P35329 22-708)
T2 construct: extracellular domain; also called murine CD22-ECD; murine CD22-ECD-His
T2 sequence (looked up): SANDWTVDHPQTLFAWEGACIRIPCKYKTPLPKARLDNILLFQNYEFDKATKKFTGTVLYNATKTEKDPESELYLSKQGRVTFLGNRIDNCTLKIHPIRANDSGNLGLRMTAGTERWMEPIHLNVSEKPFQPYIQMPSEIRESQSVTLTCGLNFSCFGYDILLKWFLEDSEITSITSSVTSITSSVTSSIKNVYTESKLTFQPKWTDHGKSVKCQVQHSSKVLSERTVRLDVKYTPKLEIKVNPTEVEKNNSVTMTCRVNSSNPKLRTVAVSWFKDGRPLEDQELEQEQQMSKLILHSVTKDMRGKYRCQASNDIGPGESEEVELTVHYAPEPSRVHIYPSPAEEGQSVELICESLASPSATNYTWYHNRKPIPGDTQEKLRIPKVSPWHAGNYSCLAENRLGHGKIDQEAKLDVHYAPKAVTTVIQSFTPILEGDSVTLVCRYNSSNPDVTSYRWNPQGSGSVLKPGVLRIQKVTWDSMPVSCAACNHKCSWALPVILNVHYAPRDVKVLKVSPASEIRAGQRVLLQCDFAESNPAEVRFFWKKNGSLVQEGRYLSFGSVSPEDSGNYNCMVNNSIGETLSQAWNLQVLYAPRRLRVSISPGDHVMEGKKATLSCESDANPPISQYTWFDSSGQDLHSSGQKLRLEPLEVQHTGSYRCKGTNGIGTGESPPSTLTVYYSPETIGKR

T3: monkey CD22 protein (ACROBiosystems, SI2-R52Ha) (monkey (rhesus monkey in paragraph 148), UniProt H9G1X2 18-686)
T3 construct: extracellular domain; also called monkey CD22-ECD; monkey CD22-ECD-His
T3 sequence: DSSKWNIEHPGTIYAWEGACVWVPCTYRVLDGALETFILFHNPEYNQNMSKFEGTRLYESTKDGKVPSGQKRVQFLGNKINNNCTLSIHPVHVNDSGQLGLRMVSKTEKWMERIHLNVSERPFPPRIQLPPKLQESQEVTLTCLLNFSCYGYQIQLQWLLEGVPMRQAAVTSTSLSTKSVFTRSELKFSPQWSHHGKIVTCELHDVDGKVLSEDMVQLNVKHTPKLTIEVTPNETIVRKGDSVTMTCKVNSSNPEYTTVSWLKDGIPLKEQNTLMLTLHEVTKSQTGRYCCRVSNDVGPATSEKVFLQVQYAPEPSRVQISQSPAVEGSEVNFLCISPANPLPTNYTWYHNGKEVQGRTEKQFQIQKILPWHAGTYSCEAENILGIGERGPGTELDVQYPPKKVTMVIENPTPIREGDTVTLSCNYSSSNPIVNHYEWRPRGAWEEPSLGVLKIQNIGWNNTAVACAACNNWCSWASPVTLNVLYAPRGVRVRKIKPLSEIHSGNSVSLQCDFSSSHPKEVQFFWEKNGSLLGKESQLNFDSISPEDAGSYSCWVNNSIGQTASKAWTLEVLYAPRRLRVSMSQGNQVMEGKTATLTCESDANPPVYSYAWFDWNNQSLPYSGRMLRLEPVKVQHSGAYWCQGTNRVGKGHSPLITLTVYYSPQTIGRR

T4: human CD22 domain5-7-His (human, UniProt P20273 414-687)
T4 construct: also called hCD22 domain5-7-His; not shown: His tag
T4 sequence: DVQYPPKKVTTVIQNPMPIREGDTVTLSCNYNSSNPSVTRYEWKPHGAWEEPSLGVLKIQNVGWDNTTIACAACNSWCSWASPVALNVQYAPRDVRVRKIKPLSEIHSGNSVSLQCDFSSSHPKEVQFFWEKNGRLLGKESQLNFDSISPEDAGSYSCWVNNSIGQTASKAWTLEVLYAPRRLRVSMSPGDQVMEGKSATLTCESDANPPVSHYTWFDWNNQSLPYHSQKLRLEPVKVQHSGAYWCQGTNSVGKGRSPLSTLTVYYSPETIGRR


How the values were obtained:
[1] = biological target: T1, human CD22-ECD-His protein; test: ELISA, Ab 0.01 nM
Summary of the method: (§1)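 Human CD22-ECD-His is adsorbed overnight at 4 °C (2 μg/mL) and blocked with 2% BSA in PBS for 2 h. Chimeric antibody binding proceeds 2 h at 37 °C, followed by HRP-labeled secondary antibody under identical conditions and TMB detection.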

[2] = biological target: T1, human CD22-ECD-His protein; test: ELISA, Ab 0.10 nM
Summary of the method: as §1

[3] = biological target: T1, human CD22-ECD-His protein; test: ELISA, Ab 0.001 nM
Summary of the method: as §1

[4] = biological target: T1, human CD22-ECD-His protein; test: ELISA, Ab 10.00 nM
Summary of the method: as §1

[5] = biological target: T1, human CD22-ECD-His protein; test: ELISA, Ab 0.0001 nM
Summary of the method: as §1

[6] = biological target: T1, human CD22-ECD-His protein; test: ELISA, Ab 100.00 nM
Summary of the method: as §1

[7] = biological target: T1, human CD22-ECD-His protein; test: ELISA, Ab 0.00001 nM
Summary of the method: as §1

[8] = biological target: T1, human CD22-ECD-His protein; test: ELISA, human CD22-ECD-His coated
Summary of the method: as §1

[9] = biological target: T2, murine CD22 protein (ACROBiosystems, …); test: ELISA, murine CD22-ECD-His coated
Summary of the method: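 Read-out is TMB absorbance after a 30 min room-temperature development stopped with 1.0 N HCl. It reflects chimeric antibody bound to plate-coated CD22 (2 μg/mL), detected with an HRP-labelled secondary antibody. Antibody and secondary incubations each ran 2 h at 37° C.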

[10] = biological target: T3, monkey CD22 protein (ACROBiosystems, …); test: ELISA, monkey CD22-ECD-His coated
Protocol: In order to detect the binding activity of CD22 human-murine chimeric antibodies to CD22 protein, the purified human CD22-ECD-His protein obtained in Example 2 was diluted with PBS to a final concentration of 2 μg/mL, and then added to 96-well ELISA plate at 100 μl/well. The plate was sealed with plastic film and incubated overnight at 4° C., the plate was washed 2 times with PBS the next day, and then a blocking solution [PBS+2% (w/w) BSA] was added for blocking at room temperature for 2 hours. […] After incubation at 37° C. for 2 hours, the plate was washed 3 times with PBS. HRP (horseradish peroxidase)-labeled secondary antibody (purchased from Sigma, catalog number: A0170) was added, and incubated at 37° C. for 2 hours, and the plate was washed 5 times with PBS. TMB substrate was added at 50 μl/well, and incubated at room temperature for 30 minutes, then a stop solution (1.0 N HCl) was added at 50 μl/well.
In order to detect the species cross-binding activity of the chimeric antibodies, an ELISA plate was coated with commercial murine CD22 protein (ACROBiosystems, catalog number: SI2-M52Ha) and monkey CD22 protein (ACROBiosystems, catalog number: SI2-R52Ha), respectively, and the ELISA detection was performed according to the method in Example 5.1.

human CD22 domain5-7-His = biological target: T4, human CD22 domain5-7-His; test: ELISA, human CD22 domain5-7-His coated

| OD450 [1] [OD450] | OD450 [2] [OD450] | OD450 [3] [OD450] | OD450 [4] [OD450] | OD450 [5] [OD450] | OD450 [6] [OD450] | OD450 [7] [OD450] | EC50 (read off the curve) [8] [nM] | binding result [9] | EC50 (read off the curve) [10] [nM] | binding result (human CD22 domain5-7-His) | Binder |
| --- | --- | --- | --- | --- | --- | --- | --- | --- | --- | --- | --- |
| 2.24 | 2.58 | 0.86 | 2.56 | 0.21 | 3.07 | 0.12 | ~0.02 | no binding (tested: 100 nM) | ~0.02 | no binding (tested: 100 nM) | F1.250.16 (antibody, human IgG1, kappa, V domains shown, Human-murine chimeric IgG1, kappa) VH: QVQLQQSGAEQVKPGASVKMSCKASGYTFTTYPIEWMKQNHGESLDWIGNIHPYNDDTEYNEKFKGKATLTVEKSSNTVFLELSRLTSDDSAVYYCVRGDYYNSRYWYFDVWGTGTTVTVSS VL: DIVMTQSQKFMSTTVGDRVSITCKAGQNVRTAVAWYQQKPGQSPKLLIYSASTRYIGVPERFTGSGSGTDFTLTITNMQSEDLADYFCQQYSSFPLTFGTGTKLELKR |
| 2.11 | 2.53 | 0.74 | 2.51 | 0.17 | 2.87 | 0.1 | ~0.03 | no binding (tested: 100 nM) | ~0.03 | no binding (tested: 100 nM) | F1.172.13 (antibody, human IgG1, kappa, V domains shown, Human-murine chimeric IgG1, kappa) VH: QVTLKESGPGILQSSQTLSLTCSFSGFSLSTSGMGVSWIRQPSGKGLEWLAHIYWDDDKRYNPSLKSRLTISKDTSRNQVFLKITSVDTADTATYYCARAPPPNWDEYYFDYWGQGTTLTVSS VL: DIQMTQSPASLSASVGETVTITCRASGNIHNSLAWYQQKQGKSPQLLVHNAKTLADGVPSRFSGSGSGTQYSLKINSLQPEDFGSYYCQHFWSTPPFGGGTKLEIKR |
| 1.52 | 1.93 | 0.65 | 1.97 | 0.32 | 2.32 | 0.18 | ~0.03 | no binding (tested: 100 nM) | 0.1 to 1 | no binding (tested: 100 nM) | F2.173.9 (antibody, human IgG1, lambda, V domains shown, Human-murine chimeric IgG1, lambda) VH: EVQLVESGGDLVKPGESLKLSCEASGFTFSNYAMSWVRQTPDRRLEWVATISSIGSFTYYSDSVKGRFTISRDNVKSTLHLQMNNLKSGDTAIYFCARLGVYFDSWGQGTTLTVSS VL: QLVLTQSSSASFSLGASAKLTCTLSSQHSTYTIEWYQQQPHKPPKFVMEIKKDGSHYTGDGIPDRFSGSSSGADRYLSISNIQPEDETIYICGVSDMIKDQFVYVFGGGTKVTVLG |
